# Target: long form of human LepR (LepRb), full length, on HEK293T cells (human) (UniProt P48357)
# Test: flow cytometry on cells
# Chain of UniProt P48357 (P48357 22-1165): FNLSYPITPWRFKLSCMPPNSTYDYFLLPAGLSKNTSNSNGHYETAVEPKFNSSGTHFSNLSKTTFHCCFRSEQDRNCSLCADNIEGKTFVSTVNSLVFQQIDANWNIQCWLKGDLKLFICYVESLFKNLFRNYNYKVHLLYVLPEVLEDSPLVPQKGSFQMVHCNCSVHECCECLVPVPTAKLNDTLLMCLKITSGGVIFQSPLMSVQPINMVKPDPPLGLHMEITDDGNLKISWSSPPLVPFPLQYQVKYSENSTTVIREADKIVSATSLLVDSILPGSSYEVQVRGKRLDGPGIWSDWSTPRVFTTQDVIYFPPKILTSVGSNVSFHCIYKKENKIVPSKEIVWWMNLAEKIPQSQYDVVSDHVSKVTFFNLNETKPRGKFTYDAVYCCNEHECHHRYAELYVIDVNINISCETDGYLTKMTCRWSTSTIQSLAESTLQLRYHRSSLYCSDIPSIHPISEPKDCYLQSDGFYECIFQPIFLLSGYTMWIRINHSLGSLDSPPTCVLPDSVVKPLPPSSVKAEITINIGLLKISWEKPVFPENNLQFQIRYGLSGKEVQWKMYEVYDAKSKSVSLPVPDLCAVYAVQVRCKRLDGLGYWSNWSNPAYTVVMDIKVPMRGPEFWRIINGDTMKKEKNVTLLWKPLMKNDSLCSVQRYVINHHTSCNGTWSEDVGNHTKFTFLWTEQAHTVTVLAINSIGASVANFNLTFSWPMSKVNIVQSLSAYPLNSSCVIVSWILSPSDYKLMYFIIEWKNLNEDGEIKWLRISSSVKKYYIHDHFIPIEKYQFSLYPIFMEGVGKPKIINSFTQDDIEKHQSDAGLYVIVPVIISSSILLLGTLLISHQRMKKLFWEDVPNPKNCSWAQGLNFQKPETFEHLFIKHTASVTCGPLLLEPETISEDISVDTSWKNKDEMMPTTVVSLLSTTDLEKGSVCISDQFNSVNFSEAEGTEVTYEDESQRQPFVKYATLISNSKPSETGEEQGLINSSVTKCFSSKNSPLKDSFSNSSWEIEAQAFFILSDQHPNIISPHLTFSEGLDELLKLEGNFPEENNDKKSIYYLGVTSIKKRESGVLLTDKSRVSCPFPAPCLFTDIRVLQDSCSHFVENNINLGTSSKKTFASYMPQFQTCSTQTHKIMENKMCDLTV
substance,measurement,value
FITC-labeled rASRA (natural protein),Kd,2.2 nM

# Source: article PMC10515849
